In PMC8199036, “Improved Tumor-Targeting with Peptidomimetic Analogs of Minigastrin ^177Lu-PP-F11N” (Cancers, 2021):
Where two headings read alike, the source gives them in different places. Starred links: 1 amine or outer side, 2 acyl side, 3 side chain; linkers in the order of their positions; H or OH if unused. Non-standard residues stand in square brackets, D forms with d. Residues, ends and D or L forms follow the SMILES beside them. *: point of attachment. DOTA = O=C(O)CN1CCN(CC(=O)O)CCN(CC(=O)*)CCN(CC(=O)O)CC1; X1 = C[C@@H](C(=O)[*:2])n1cc([C@@H](CCC(=O)O)N[*:1])nn1; X2 = O=C(Cn1cc([C@H](Cc2ccc(O)cc2)N[*:1])nn1)[*:2]; Nle = CCCC[C@H](N)C(=O)O

Columns and labels:
A431-CCK2R cells = assay: cell binding and internalization; type: cell-based; conditions: 177Lu-labeled, % of applied radioactivity
[1] = logD pH 7.4 determination; type: physicochemical; conditions: 177Lu-labeled
Source text: Procedures for (radio)metal labeling of the DOTA–minigastrin conjugates with ^177Lu^3+ and ^natLu^3+, cell culturing of A431-CCK2R cells, cell internalization (including blocking experiments with excess minigastrin (H-LE5AYGWMDF-NH2)), competition binding assays (IC50), stability measurements in human blood plasma, and determinations of logDpH 7.4 have been reported previously for the in vitro evaluation of TZMGs and were applied to NMGs without alteration.

[2] = test system: xenografts of A431-CCK2R cells; assay: biodistribution in mice with CCK2R-positive xenografts; type: in vivo, female CD1-nu mice
Protocol: (§1) Procedures for biodistribution studies with ^177Lu-labeled conjugates (10 pmol, 100 µL, 0.1 µM in PBS, 0.5 MBq, 1 µg/kg) in female CD1-nu mice with xenografts of A431-CCK2R cells at 1, 4, and 24 h p.i., as well as blocking experiments at 4 h p.i. with a 6000-fold excess of minigastrin have been reported previously and were followed without modifications. Statistical analysis was performed via GraphPad Prism using two-sided analysis of variance. n = 4 animals per group.

[3] = as above; type: in vivo, female CD1-nu mice; conditions: female, CD1-nu, mouse, total radioactivity; for tissue uptake at 1 h / tissue uptake at 4 h / tissue uptake at 24 h: in vivo
Protocol: as §1

[4] = 10 pmol, Stomach (CCK2R-positive) uptake
[5] = 10 pmol, Tumor (CCK2R-positive) uptake
[6] = tumor / blood, 10 pmol, read-out: Tumor-to-Blood ratio
[7] = tumor / kidneys, 10 pmol, read-out: Tumor-to-Kidneys ratio
[8] = tumor / muscle, 10 pmol, read-out: Tumor-to-Muscle ratio
[9] = tumor / stomach, 10 pmol, read-out: Tumor-to-Stomach ratio

CCCC[C@H](NC(=O)[C@H](Cc1c[nH]c2ccccc12)NC(=O)Cn1cc([C@H](Cc2ccc(O)cc2)NC(=O)[C@H](C)n2cc([C@@H](CCC(=O)O)NC(=O)[C@@H](CCC(=O)O)NC(=O)[C@@H](CCC(=O)O)NC(=O)[C@@H](CCC(=O)O)NC(=O)[C@@H](CCC(=O)O)NC(=O)[C@@H](CCC(=O)O)NC(=O)CN3CCN(CC(=O)O)CCN(CC(=O)O)CCN(CC(=O)O)CC3)nn2)nn1)C(=O)N[C@@H](CC(=O)O)C(=O)N[C@@H](Cc1ccccc1)C(N)=O [NMG 3, DOTA-(DGlu)6 -Ψ[Tz]-Ala-Tyr-Ψ[Tz]-Gly-Trp-Nle-Asp-Phe-NH2] ({DOTA}-[dE][dE][dE][dE][dE][X1][X2]W[Nle]DF-NH2)
Internalization 4 h Total (%) (A431-CCK2R cells): 76.5 ± 2.8% | logDpH 7.4 [1]: -3.95 ± 0.42 | Tumor washout: tumor uptake relative to 1h ([2]; 4 h): 73% | Tumor washout: tumor uptake relative to 1h ([2]; 24 h): 56% | Blood uptake ([2]; female, CD1-nu, mouse, in vivo, 10 pmol, 1 h): < 0.5 % i.A./g | tissue uptake at 1 h ([3]; 10 pmol, Blood uptake): 0.51 %ID/g | tissue uptake at 4 h ([3]; 10 pmol, Blood uptake): 0.02 %ID/g | tissue uptake at 24 h ([3]; 10 pmol, Blood uptake): < 0.01 %ID/g | tissue uptake at 1 h ([3]; 10 pmol, Bone uptake): 0.45 %ID/g | tissue uptake at 24 h ([3]; 10 pmol, Bone uptake): 0.07 %ID/g | tissue uptake at 1 h ([3]; 10 pmol, Heart uptake): 0.19 %ID/g | tissue uptake at 4 h ([3]; 10 pmol, Heart uptake): 0.03 %ID/g | tissue uptake at 24 h ([3]; 10 pmol, Heart uptake): 0.01 %ID/g | tissue uptake at 1 h ([3]; 10 pmol, Intestines uptake): 0.25 %ID/g | tissue uptake at 4 h ([3]; 10 pmol, Intestines uptake): 0.1 %ID/g | tissue uptake at 24 h ([3]; 10 pmol, Intestines uptake): 0.02 %ID/g | tissue uptake at 1 h ([3]; 10 pmol, Kidneys uptake): 2.01 %ID/g | tissue uptake at 4 h ([3]; 10 pmol, Kidneys uptake): 1.74 %ID/g | tissue uptake at 24 h ([3]; 10 pmol, Kidneys uptake): 1.09 %ID/g | tissue uptake at 1 h ([3]; 10 pmol, Liver uptake): 0.16 %ID/g | tissue uptake at 4 h ([3]; 10 pmol, Liver uptake): 0.07 %ID/g | tissue uptake at 24 h ([3]; 10 pmol, Liver uptake): 0.04 %ID/g | tissue uptake at 1 h ([3]; 10 pmol, Lung uptake): 0.33 %ID/g | tissue uptake at 4 h ([3]; 10 pmol, Lung uptake): 0.07 %ID/g | tissue uptake at 24 h ([3]; 10 pmol, Lung uptake): 0.03 %ID/g | tissue uptake at 1 h ([3]; 10 pmol, Muscle uptake): 0.13 %ID/g | tissue uptake at 24 h ([3]; 10 pmol, Muscle uptake): 0.01 %ID/g | tissue uptake at 1 h ([3]; 10 pmol, Pancreas uptake): 0.49 %ID/g | tissue uptake at 4 h ([3]; 10 pmol, Pancreas uptake): 0.24 %ID/g | tissue uptake at 24 h ([3]; 10 pmol, Pancreas uptake): 0.17 %ID/g | tissue uptake at 1 h ([3]; 10 pmol, Spleen uptake): 0.13 %ID/g | tissue uptake at 4 h ([3]; 10 pmol, Spleen uptake): 0.05 %ID/g | tissue uptake at 1 h [3, 4]: 3.76 %ID/g | tissue uptake at 4 h [3, 4]: 3.11 %ID/g | tissue uptake at 24 h [3, 4]: 1.51 %ID/g | tissue uptake at 1 h [3, 5]: 9.43 %ID/g | tissue uptake at 4 h [3, 5]: 6.9 %ID/g | tissue uptake at 24 h [3, 5]: 5.24 %ID/g | tissue uptake at 4 h ([3]; Blood uptake): 0.03 %ID/g | tissue uptake at 4 h ([3]; Heart uptake): 0.05 %ID/g | tissue uptake at 4 h ([3]; Intestines uptake): 0.07 %ID/g | tissue uptake at 4 h ([3]; Kidneys uptake): 1.88 %ID/g | tissue uptake at 4 h ([3]; Liver uptake): 0.09 %ID/g | tissue uptake at 4 h ([3]; Lung uptake): 0.09 %ID/g | tissue uptake at 4 h ([3]; Pancreas uptake): 0.19 %ID/g | tissue uptake at 4 h ([3]; Spleen uptake): 0.06 %ID/g | tissue uptake at 4 h ([3]; Stomach (CCK2R-positive) uptake): 0.65 %ID/g | tissue uptake at 4 h ([3]; Tumor (CCK2R-positive) uptake): 3.43 %ID/g | tissue to tissue ratio at 1 h [3, 6]: 19.5 ± 7.58 | tissue to tissue ratio at 4 h [3, 6]: 345 ± 34.6 | tissue to tissue ratio at 24 h [3, 6]: 4370 ± 541 | tissue to tissue ratio at 1 h [3, 7]: 4.7 ± 1.2 | tissue to tissue ratio at 4 h [3, 7]: 3.99 ± 0.43 | tissue to tissue ratio at 24 h [3, 7]: 3.65 ± 0.99 | tissue to tissue ratio at 1 h [3, 8]: 79 ± 15.7 | tissue to tissue ratio at 4 h [3, 8]: 505 ± 158 | tissue to tissue ratio at 24 h [3, 8]: 437 ± 54.1 | tissue to tissue ratio at 1 h [3, 9]: 2.66 ± 1.08 | tissue to tissue ratio at 4 h [3, 9]: 2.22 ± 0.2 | tissue to tissue ratio at 24 h [3, 9]: 3.06 ± 1.44
